Results on 1 protein are retold here after paper PMC8070244, “The MarR-Type Regulator PA3458 Is Involved in Osmoadaptation Control in Pseudomonas aeruginosa” (International Journal of Molecular Sciences, 2021).

The series deals with the molecule itself. Kind of series: SEC-MALS; 100 uL of 1 mg/ml sample on Superdex 200 Increase 10/300 in LEW buffer (50 mM NaH2PO4, 300 mM NaCl pH 8), room temperature, 0.5 mL/min.

B1: PA3458-His6 (natural protein, Pseudomonas aeruginosa PAO1161, UniProt Q9HYE8 1-157, looked up)
chain: MVESNKTAADTYSLAIFRAIRRLQQAAEIHSKRLSRYGGLTPLQLLILHVLAVEGELTATQLAKLVSLSQASLSGVLDRLEGRGLLYRRRDEQDRRKSWLHLDPAGHEALAEAPPLLPEYVIERFAALPEWERHGLLAALLRAADLFGLPEEDVEEE
notes: PA3458, MarR-type transcriptional regulator of Pseudomonas aeruginosa PAO1161 (locus D3C65_07830; PAO1 ortholog PA3458), 157 residues (17.6 kDa); the gene was amplified with primers 13#/14# (forward primer begins at the ATG; 483 bp fragment) and cloned NcoI/HindIII in pET28a; it says that the gene (157 codons) was cloned as a PA3458-his6 fusion, with the forward primer starting at the ATG; Linker …
As to B1, the “stoichiometry N” value is 4.

One may read the stoichiometry N as the number of molecules, sites or subunits per partner or assembly.
